Experiment [1] deals with T1, CD16A (FcγRIIIA) on primary human NK cells (human, UniProt P08637 17-254).
T1 construct: whole, on cells
Briefly: flow cytometry, DyLight650-labelled antibody on fresh human NK cells (FIG. 40A). (In general: Flow cytometry measures light scatter and fluorescence of single cells or particles in a stream.)
Experimental: Fresh prepared human NK cells were pre-incubated for 1-hours at 37 C with and without 10 mg/mL of SCIG (Hizentra), then stained with DyLight650 labeled anti-AFM26/CD16a at indicted concentrations. […] NK (FIG. 40D) and MM.1S cells (FIG. 40C) were preincubated separately in 50% human autologous serum for 2 hours prior to assay setup. NK cells were co-cultured with MM.1S tumor cell line at an approximate E:T ration of 5, and exposed to 10-fold serial diluted test articles from 0.1-100 nM for approximately 20 hours at 37 C with 5% CO₂. Antibody staining with CD138 and CD56 followed by FACS were used to monitor cytotoxicity of MM.1S target cells and NK survival. Data were analyzed with the software programs FlowJo and GraphPad Prism 6.

The target of experiment [2] is T1, CD16A (FcγRIIIA) on primary human NK …. Briefly: flow cytometry, primary human NK cells, 37 C, with 10 mg/mL polyclonal human IgG as competitor.
The target in experiment [3] is T2, human CD16A-158V ECD fused to monomeric Fc (human, UniProt P08637 17-208).
T2 construct: extracellular domain; also called CD16A-158V ECD-monomeric Fc-fusion antigen; CD16A-158V ECD-Fc fusion antigen; not shown: monomeric Fc (Ying et al. 2012), silent; Avi-tag in the SPR form
T2 sequence (P08637 17-208 F176V): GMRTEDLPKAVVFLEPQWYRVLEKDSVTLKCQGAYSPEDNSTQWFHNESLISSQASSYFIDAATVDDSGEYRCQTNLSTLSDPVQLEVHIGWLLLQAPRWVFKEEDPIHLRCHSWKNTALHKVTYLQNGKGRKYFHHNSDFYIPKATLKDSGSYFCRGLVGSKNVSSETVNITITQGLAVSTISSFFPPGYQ
The experiment is described as follows: ELISA, antigen coated at 1.5 µg/mL, His-tagged scFv titrated.

Experiment [4] addresses T3, human CD16A-158F ECD fused to monomeric Fc (human, UniProt P08637 17-208, biotinylated on the Avi-tag in the SPR form).
T3 construct: extracellular domain; not shown: monomeric Fc (Ying et al. 2012), silent; Avi-tag in the SPR form
The description is as above.

Experiment [5] has as its target T4, Cynomolgus CD16A ECD fused to monomeric Fc (cynomolgus, UniProt Q8SPW2 17-208, biotinylated on the Avi-tag in the SPR form).
T4 construct: also called biotinylated mono-Fc(silent)-Avi-tagged cynomolgus CD16; not shown: monomeric Fc fusion partner (Avi-tag in the SPR form)
The experiment is described as above.

Experiment [6] has as its target T2, human CD16A-158V ECD fused to monomeric …. The experiment is described as follows: SPR, Biacore T200, receptor captured, 1:1 model. Background: In SPR one partner is held on a chip, and binding of the other changes the refractive index at the surface.
For experiment [7] the target is unchanged. Briefly: ELISA, CD16 antigen coated at 0.5 µg/mL (10 nM), with 8-10 nM 3G8 IgG as competitor. A general note: An ELISA detects its analyte on a solid surface through an enzyme-linked reagent.
For experiment [8], the target named is T1, CD16A (FcγRIIIA) on primary human NK …. Briefly: flow cytometry, primary human NK cells, 37 C, buffer.
Experiment [9] concerns the target T2, human CD16A-158V ECD fused to monomeric …. The experiment is described as follows: ELISA, CD16 antigen coated at 0.5 µg/mL (10 nM), without competition.
In experiment [10] the target is T5, biotinylated, recombinant human CD16A(48R-158V) fused to human IgG1 Fc portion (human, UniProt P08637 17-208, biotinylated (site not stated)).
T5 construct: also called CD16A soluble antigen; recombinant human CD16A soluble antigen; not shown: human IgG1 Fc portion
T5 sequence (P08637 17-208 L66R/F176V limits assumed): as the sequence (P08637 17-208 F176V) above, with L50R counted along it
The experiment is described as follows: ELISA, coated construct, soluble CD16A(48R-158V)-Fc.

T1 sequence (P08637 17-254): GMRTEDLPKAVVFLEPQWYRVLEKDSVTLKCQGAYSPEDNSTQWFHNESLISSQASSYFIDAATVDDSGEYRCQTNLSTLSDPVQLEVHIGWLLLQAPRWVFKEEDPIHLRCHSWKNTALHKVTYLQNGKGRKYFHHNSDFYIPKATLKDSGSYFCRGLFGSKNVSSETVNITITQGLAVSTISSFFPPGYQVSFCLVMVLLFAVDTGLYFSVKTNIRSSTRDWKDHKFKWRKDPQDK
T4 sequence (Q8SPW2 17-208): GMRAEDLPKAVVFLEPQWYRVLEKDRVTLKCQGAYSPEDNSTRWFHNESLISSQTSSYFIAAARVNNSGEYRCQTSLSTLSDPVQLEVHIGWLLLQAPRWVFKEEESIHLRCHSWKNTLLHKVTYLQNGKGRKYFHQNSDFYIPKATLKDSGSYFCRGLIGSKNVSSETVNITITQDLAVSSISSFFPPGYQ
T3 sequence (P08637 17-208): as the sequence (P08637 17-208 F176V) above, with V160F counted along it

B1: CD16A/BCMA antibody I (bispecific antibody, human IgG1, kappa)
heavy: EVQLLESGGGLVQPGGSLRLSCAASGFTFSNYDMAWVRQAPGKGLEWVSSISTRGDITSYRDSVKGRFTISRDNSKNTLYLQMNSLRAEDTAVYYCARQDYYTDYMGFAYWGQGTLVTVSSASTKGPSVFPLAPSSKSTSGGTAALGCLVKDYFPEPVTVSWNSGALTSGVHTFPAVLQSSGLYSLSSVVTVPSSSLGTQTYICNVNHKPSNTKVDKKVEPKSCDKTHTCPPCPAPEFEGGPSVFLFPPKPKDTLMISRTPEVTCVVVAVSHEDPEVKFNWYVDGVEVHNAKTKPREEQYNSTYRVVSVLTVLHQDWLNGKEYKCKVSNKALPAPIEKTISKAKGQPREPQVYTLPPSREEMTKNQVSLTCLVKGFYPSDIAVEWESNGQPENNYKTTPPVLDSDGSFFLYSKLTVDKSRWQQGNVFSCSVMHEALHNHYTQKSLSLSPGGGGGSGGGGSGGGGSGGGGSGGGGSGGGGSSYVLTQPSSVSVAPGQTATISCGGHNIGSKNVHWYQQRPGQSPVLVIYQDNKRPSGIPERFSGSNSGNTATLTISGTQAMDEADYYCQVWDNYSVLFGGGTKLTVLGGSGGSGGSGGSGGSGGSGGSQVQLVQSGAEVKKPGESLKVSCKASGYTFTSYYMHWVRQAPGQGLEWMGAIEPMYGSTSYAQKFQGRVTMTRDTSTSTVYMELSSLRSEDTAVYYCARGSAYYYDFADYWGQGTLVTVSS
light: AIQMTQSPSSLSASVGDRVTITCRASEDIYNGLAWYQQKPGKAPKLLIYGASSLQDGVPSRFSGSGSGTEFTLTISSLQPEDEATYYCAGPHKYPLTFGGGTKVEIKRTVAAPSVFIFPPSDEQLKSGTASVVCLLNNFYPREAKVQWKVDNALQSGNSQESVTEQDSKDSTYSLSSTLTLSKADYEKHKVYACEVTHQGLSSPVTKSFNRGEC
notes: also called BCMA/CD16A antibody I; anti-BCMA/CD16a
Regarding B1, the binding result in experiment [1] is given as “binds”.

B2: scFv 3G8 (scFv containing the variable domains of the CD16 pan-specific antibody 3G8) (scFv)
chain 1: QVTLKESGPGILQPSQTLSLTCSFSGFSLRTSGMGVGWIRQPSGKGLEWLAHIWWDDDKRYNPALKSRLTISKDTSSNQVFLKIASVDTADTATYYCAQINPAWFAYWGQGTLVTVS
chain 2: DIVLTQSPASLAVSLGQRATISCKASQSVDFDGDSFMNWYQQKPGQPPKLLIYTTSNLESGIPARFSASGSGTDFTLNIHPVEEEDTATYYCQQSNEDPYTFGGGTKLELK
For the molecule B2, the figures for the Kd in [2], in [6] and in [8] were 64.6 nM, 8.6 nM and 3.8 nM, respectively. In addition, the half-maximal effective concentration (EC50) (usually the concentration giving half of the maximal effect) in experiment [3] stood at 0.33 nM; in experiment [4] it was 0.58 nM; in [5], 0.87 nM; in experiment [7] it was 19.7 nM; in [9], 0.9 nM.

B3: scDb-Tribody_01 (other)
VL: SYVLTQPSSVSVAPGQTATISCGGHNIGSKNVHWYQQRPGQSPVLVIYQDNKRPSGIPERFSGSNSGNTATLTISGTQAMDEADYYCQVWDNYSVLFGGGTKLTVL
VH: QVQLVQSGAEVKKPGESLKVSCKASGYTFTSYYMHWVRQAPGQGLEWMGIINPSGGSTSYAQKFQGRVTMTRDTSTSTVYMELSSLRSEDTAVYYCARGSAYYYDFADYWGQGTLVTVSS
notes: Trispecific; LSIV21 scDb VL-VL-VH-VH; connector1 NO:20, no hinge, no Fc, connector2 NO:20
As to B3, in experiment [10], the concentration giving a half-maximal response (EC50) came out at 0.65 nM.

(Values after patent US20200109202A1 (published 2020).)
